US20210198347A1 (Chugai, published 2021)

Columns and labels:
[1] = target: T1, recombinant human C1s CCP1-CCP2-SP-His (human, UniProt P09871 292-688); experiment: SPR (BIACORE T200, 37 degrees C, pH 7.4, 1.2 mM CaCl2), antibody captured by protein A/G
T1 construct: Truncated protein lacking the CUB1-EGF-CUB2 domain; also called human C1s CCP1-CCP2-SP M292-D688
T1 sequence: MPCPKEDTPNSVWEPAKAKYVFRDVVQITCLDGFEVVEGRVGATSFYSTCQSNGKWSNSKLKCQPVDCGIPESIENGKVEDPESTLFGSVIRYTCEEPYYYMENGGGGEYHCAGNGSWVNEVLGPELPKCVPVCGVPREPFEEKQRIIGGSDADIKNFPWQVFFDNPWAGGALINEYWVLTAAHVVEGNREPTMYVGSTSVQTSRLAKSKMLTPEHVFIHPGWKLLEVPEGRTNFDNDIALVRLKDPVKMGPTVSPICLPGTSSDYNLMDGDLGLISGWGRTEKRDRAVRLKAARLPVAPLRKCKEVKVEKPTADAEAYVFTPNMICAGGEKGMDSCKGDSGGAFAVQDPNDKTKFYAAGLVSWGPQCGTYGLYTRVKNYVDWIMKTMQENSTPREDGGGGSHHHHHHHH

[2] = target: T2, Native proenzyme human C1s (Comptech A103) (human, UniProt P09871 16-688); experiment: SPR (BIACORE T200, 37 degrees C, pH 7.4), antibody captured by protein A/G, C1s 50 nM
T2 construct: mature; Bought native protein; also called native human C1s Proenzyme; native human C1s proenzyme protein (CompTech)
T2 sequence (looked up): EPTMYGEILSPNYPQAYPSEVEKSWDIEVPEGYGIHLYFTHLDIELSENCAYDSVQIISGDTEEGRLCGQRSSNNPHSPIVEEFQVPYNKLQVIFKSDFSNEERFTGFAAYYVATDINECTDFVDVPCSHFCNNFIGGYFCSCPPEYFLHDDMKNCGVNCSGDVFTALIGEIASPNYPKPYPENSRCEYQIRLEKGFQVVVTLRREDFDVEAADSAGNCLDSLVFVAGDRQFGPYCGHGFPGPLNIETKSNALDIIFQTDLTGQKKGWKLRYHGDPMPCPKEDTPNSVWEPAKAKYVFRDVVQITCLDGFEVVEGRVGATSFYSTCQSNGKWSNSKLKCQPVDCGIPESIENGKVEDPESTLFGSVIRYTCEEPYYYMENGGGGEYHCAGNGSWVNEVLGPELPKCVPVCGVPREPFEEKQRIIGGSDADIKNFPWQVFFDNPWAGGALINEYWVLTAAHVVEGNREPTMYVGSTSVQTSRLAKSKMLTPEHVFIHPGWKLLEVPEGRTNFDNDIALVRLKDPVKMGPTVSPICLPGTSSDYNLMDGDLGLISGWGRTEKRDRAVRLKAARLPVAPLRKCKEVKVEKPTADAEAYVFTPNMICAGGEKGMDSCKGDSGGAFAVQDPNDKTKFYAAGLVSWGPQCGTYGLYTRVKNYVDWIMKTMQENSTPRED
Experimental: The binding specificities of the six C1s CUB1-EGF-CUB2 binders were determined at 37 degrees C. using BIACORE® T200 instrument (GE Healthcare). Recombinant Protein A/G (Pierce) was immobilized onto all flow cells of a CM4 sensor chip using an amine coupling kit (GE Healthcare). Antibodies and analytes were prepared in 7(+) buffer (20 mM ACES, 150 mM NaCl, 1.2 mM CaCl₂, 0.05% Tween 20, 0.005% NaN₃, pH 7.4). Each antibody was captured onto the sensor surface by protein A/G. Antibody capture levels were aimed at 100 resonance unit (RU). Native proenzyme human C1s (Comptech A103) (at 50 nM as a monomer) or recombinant human C1s CCP1-CCP2-SP-His (at 100 nM as a monomer) was injected, followed by dissociation. Sensor surface was regenerated each cycle with 10 mM Glycine-HCl pH 1.5. The six C1s CUB1-EGF-CUB2 binders bound to the native proenzyme human C1s, but not recombinant human C1s CCP1-CCP2-SP-His, which is a truncated protein lacking the CUB1-EGF-CUB2 domain.

B1: COS0583gg-SG1148 (antibody, human IgG1, kappa, V domains shown)
VH: QSLEESGGRLVTPGTPLTLTCTVSGIDLSSYAMIWVRQAPGKGLEWIGIIYVRGSTYYASWAKDRFTISKTSTTVDLKITSPTTEDTATYFCARAYGGDTFSDGFDPWGPGTLVTVSS
VL: DPVMTQTPSSTSAAVGGTVTINCQSSQNVYGNNRLAWYQQKPGQPPKLLIYLASTLASGVPSRFRGNGSGTQFTLTISGVQCDDAATYYCAGGYRDDTNSFGGGTKVEIKR
notes: Constant regions as for m1; also called COS583; COS583gg(-SG1148)
binding result [1]: no binding (tested: 100 nM)
binding result [2]: binds
